The source of these data is article PMC11369174, “Proteome-scale characterisation of motif-based interactome rewiring by disease mutations” (Molecular Systems Biology, 2024).

Test [1] has as its target importin subunit α-3 (KPNA4) ARM domain (human). The test is described as follows: fluorescence polarisation; displacement as a1, with a FITC-labelled probe sampling the minor pocket of the KPNA4 ARM domain. (In fluorescence polarisation assays a small probe gives low polarisation when free and higher when bound to something large.)
Test [2] concerns the target MAP1LC3A ATG8 (human). The test is described as follows: fluorescence polarisation; displacement: unlabelled peptide titrated onto a complex of FITC-labelled peptide (10 nM) and protein domain (1-2x KD); 50 mM sodium phosphate buffer pH 7.4 (CASK: plus 100 mM NaCl); KD calculated from IC50; technical triplets.
In test [3] the target is E3 ubiquitin-protein ligase NEDD4 (NEDD4) WW2 domain, GST-tagged (human). The test is described as above.
Chain of E3 ubiquitin-protein ligase NEDD4 (NEDD4) WW2 domain, GST-tagged (human) (P46934 whole entry, the tested form may be a part): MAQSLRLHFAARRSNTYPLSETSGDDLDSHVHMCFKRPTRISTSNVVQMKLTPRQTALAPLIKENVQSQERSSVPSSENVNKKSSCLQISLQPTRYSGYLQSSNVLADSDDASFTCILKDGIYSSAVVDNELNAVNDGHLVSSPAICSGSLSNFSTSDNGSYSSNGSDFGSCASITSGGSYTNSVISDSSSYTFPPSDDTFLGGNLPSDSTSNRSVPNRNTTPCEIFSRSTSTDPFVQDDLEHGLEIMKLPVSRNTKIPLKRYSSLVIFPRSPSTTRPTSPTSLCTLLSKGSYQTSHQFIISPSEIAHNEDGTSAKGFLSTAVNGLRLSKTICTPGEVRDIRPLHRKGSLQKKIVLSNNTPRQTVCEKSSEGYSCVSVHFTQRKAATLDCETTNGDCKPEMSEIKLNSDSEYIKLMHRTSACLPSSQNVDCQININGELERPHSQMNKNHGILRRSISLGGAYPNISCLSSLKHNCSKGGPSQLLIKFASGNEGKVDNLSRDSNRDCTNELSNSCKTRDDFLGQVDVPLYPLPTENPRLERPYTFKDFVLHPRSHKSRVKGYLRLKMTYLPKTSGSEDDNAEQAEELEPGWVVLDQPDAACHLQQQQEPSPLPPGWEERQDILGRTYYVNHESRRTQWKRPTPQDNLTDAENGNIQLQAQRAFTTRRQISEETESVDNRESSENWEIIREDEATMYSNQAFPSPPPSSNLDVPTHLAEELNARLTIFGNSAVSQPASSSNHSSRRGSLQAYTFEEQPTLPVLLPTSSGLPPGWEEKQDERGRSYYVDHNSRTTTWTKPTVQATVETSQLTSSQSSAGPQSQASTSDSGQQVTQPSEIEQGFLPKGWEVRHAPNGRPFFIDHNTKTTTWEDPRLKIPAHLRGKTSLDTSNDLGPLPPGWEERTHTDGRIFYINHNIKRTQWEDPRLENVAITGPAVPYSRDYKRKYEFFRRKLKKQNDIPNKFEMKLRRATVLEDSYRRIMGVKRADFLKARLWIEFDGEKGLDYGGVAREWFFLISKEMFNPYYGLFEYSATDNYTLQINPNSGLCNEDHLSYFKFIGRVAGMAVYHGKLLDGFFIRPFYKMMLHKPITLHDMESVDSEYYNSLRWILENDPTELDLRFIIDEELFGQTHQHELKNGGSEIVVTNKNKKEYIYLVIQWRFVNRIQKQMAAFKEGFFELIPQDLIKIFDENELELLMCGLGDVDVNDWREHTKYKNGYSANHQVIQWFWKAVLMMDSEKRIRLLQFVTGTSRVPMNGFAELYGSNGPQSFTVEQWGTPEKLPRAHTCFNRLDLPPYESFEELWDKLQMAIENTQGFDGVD
Test [4] addresses GABARAPL1 ATG8 (human). The test is described as above.
The target in test [5] is FITC-STK11_mut. The test is described as follows: fluorescence polarisation; saturation binding: dilution series of the protein domain added to 10 nM FITC-labelled peptide; 50 mM sodium phosphate pH 7.4, 0.05% Tween (protein dialysed in 50 mM sodium phosphate with 1 mM DTT; CASK kinase domain with 100 mM NaCl in addition); quadratic fit; technical triplets.
Test [6] concerns the target importin subunit α-3 (KPNA4) ARM domain (human). The test is described as follows: fluorescence polarisation; displacement as a1, with a FITC-labelled probe sampling the major pocket of the ARM domain (KPNA4, KPNA7).
Test [7] has as its target USP7 MATH/ TRAF (human). The test is described as follows: fluorescence polarisation; displacement: unlabelled peptide titrated onto a complex of FITC-labelled peptide (10 nM) and protein domain (1-2x KD); 50 mM sodium phosphate buffer pH 7.4 (CASK: plus 100 mM NaCl); KD calculated from IC50; technical triplets.

Chain of importin subunit α-3 (KPNA4) ARM domain (human) (O00629 whole entry, the tested form may be a part): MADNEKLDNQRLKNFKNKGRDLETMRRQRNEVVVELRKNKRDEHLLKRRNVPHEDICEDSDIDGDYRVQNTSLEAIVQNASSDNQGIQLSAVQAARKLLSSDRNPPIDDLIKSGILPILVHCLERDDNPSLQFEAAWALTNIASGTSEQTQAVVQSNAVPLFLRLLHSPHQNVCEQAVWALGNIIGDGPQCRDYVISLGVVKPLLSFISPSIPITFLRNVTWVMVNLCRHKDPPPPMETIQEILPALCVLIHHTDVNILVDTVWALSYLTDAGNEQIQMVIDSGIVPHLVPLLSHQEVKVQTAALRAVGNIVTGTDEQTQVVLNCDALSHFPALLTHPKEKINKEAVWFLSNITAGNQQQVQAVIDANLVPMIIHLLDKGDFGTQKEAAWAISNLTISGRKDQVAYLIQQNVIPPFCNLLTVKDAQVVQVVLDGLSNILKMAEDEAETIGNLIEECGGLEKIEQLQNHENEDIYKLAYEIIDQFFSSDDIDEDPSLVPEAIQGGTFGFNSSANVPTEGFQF

PELWVAHRTAQHLSAT [ZNF526_(152-167) K160T peptide]: the KD, minor pocket in test [1] is 395 µM. QTKWELLQQVDTSTRT [KRT1 209-224 wild-type peptide]: in test [2], the Kd was 55 µM. PIPGTPPPNYDSLRLQ [SCNN1B_(611-626) wild-type peptide]: the Kd in test [3] is 39 µM. On the same count and under the same terms, the value for PIPGTRPPNYDSLRLQ [SCNN1B_(611-626) P616R peptide] was 80 µM.

As for QTKWEPLQQVDTSTRT [KRT1 209-224 L214P peptide], in test [2], the equilibrium dissociation constant (Kd) was 580 µM.

Regarding DKDEWQFLDQNEDAFE [BUB1_(486-501) S492F peptide], in test [4], the Kd was under 0.3 µM.

B1: ADP-ribosylation factor-binding protein GGA1 (GGA1) VHS domain (domain or fragment)
chain: ATNPLNKELDWASINGFCEQLNEDFEGPPLATRLLAHKIQSPQEWEAIQALTVLETCMKSCGKRFHDEVGKFRFLNELIKVVSPKYLGSRTSEKVKNKILELLYSWTVGLPEEVKIAEAYQMLKKQGIVKS
On to B1, for which, in test [5], the Kd turned out to be 14.1 µM. Take YLLDGPPNPERAKLSS [CREBBP 5-19 K13E peptide]: in test [6], the KD, major pocket came out at 860 µM. As for YISSSSTSTMPNSSQSS [CHK2 38-53 wild-type peptide], the Kd in test [7] was 3.1 µM. For the molecule PIPGTPPRNYDSLRLQ [SCNN1B_(611-626) P618R peptide], the Kd in test [3] is 603 µM. Consider DKDEWQSLDQNEDAFE [BUB1_(486-501) wild-type peptide], for which the Kd in test [4] was 5.5 µM. Regarding YISSSSTSTMPNSSKSS [CHK2 38-53 Q51K peptide], in test [7], the Kd was 4.7 µM.

The Kd is the equilibrium constant for the complex coming apart.
